As usually defined, the Kd is the free concentration of one partner at which half of the binding sites on the other are occupied at equilibrium, for simple one-to-one binding. In general, koff refers to a measure of how fast the partners let go of each other. Read a high koff as a short-lived complex. As usually defined, the kon is the rate constant with which the complex forms. A low value points to slow association.

This note sets out measurements from patent publication US20110262445A1 (CEPHALON AUSTRALIA, published 2011).

Assay [1] has as its target T1, human IL-12 (human, UniProt P29460 23-328; P29459 23-219).
T1 construct: Recombinant (Peprotech); FLAG-tagged IL-12 in the flow cytometry assays, biotinylated in the IL-12Rβ2 assay; also called hIL-12
T1 sequence 1: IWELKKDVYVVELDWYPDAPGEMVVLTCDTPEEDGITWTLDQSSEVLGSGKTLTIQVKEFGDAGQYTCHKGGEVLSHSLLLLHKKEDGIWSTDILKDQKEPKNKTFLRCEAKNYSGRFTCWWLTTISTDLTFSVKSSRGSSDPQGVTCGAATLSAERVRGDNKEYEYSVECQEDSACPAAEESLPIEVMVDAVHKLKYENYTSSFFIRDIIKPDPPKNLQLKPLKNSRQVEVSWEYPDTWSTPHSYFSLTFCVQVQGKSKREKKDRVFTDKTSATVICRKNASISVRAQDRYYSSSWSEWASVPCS
T1 sequence 2: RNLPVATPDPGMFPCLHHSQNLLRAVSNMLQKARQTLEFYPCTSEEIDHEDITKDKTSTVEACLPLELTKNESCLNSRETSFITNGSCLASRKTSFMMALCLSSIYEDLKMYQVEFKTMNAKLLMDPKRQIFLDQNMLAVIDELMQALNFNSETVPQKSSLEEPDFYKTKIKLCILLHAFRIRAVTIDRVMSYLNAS
Description: ELISA, coated IL-12. A digest of the protocol:
(§1)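 Cytokine at 1 μg/mL in carbonate buffer pH 9.6 was coated overnight at 4° C onto Maxisorp plates and blocked with 1% BSA in PBS for 1 hour at 25° C. Antibody titrations were bound for 1 hour at 25° C, then detected with goat anti-human IgG or anti-murine immunoglobulin HRP (1:2000, 1 hour). TMB was developed and stopped with 1M HCl. The binding result is absorbance at 450 nm (reference 620 nm).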
In general terms: An ELISA detects its analyte on a solid surface through an enzyme-linked reagent.

The target of assay [2] is T2, human IL-23 (human, UniProt P29460 23-328; Q9NPF7 20-189).
T2 construct: Recombinant (Ebioscience); HIS-tagged in flow cytometry, biotinylated in some assays; also called hIL-23; rhIL-23
T2 sequence 1: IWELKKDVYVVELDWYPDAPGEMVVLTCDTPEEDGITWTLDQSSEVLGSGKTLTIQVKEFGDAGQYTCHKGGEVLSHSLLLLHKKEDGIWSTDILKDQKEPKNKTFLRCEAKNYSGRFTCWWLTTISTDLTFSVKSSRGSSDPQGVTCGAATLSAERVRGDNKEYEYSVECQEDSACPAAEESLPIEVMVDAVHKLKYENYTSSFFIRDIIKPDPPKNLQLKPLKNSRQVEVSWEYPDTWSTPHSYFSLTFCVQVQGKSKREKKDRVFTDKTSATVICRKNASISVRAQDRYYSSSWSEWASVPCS
T2 sequence 2: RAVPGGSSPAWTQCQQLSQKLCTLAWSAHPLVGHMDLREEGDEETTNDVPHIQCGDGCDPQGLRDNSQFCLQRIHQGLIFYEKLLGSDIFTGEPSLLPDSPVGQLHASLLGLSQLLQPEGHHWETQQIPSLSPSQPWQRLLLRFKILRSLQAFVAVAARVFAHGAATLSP
The experiment in a line: ELISA, coated IL-23. A digest of the protocol:
as §1

For assay [3], the target named is T1, human IL-12. The experiment in a line: SPR, IgG. How it is done:
(§2) CU-A6 was converted to Antibody 183, CP-A6 was converted to Antibody 184 and AW-F2 was converted to Antibody 207 by addition of a human heavy chain Fc region (SEQ ID NO: 8) and a constant kappa light chain region (SEQ ID NO: 9). IgG molecules were expressed by co-transfecting the heavy and light chain construct for each antibody into HEK 293E cultures. The expressed IgGs were purified by affinity chromatography and gel exclusion and the resulting monomeric molecules were tested for IL-12 and IL-23 binding by SPR (TABLE 6). All three IgG variants retained binding activity against both analytes with a visible improvement in kd compared to the parental wild-type IgG. Based on this, it is reasonable to expect that scFv variants described in TABLE 4 could be converted to the IgG format and retain improved binding characteristics against IL-12 and IL-23.
(§3) Using a SPR 3000, Protein A was immobilized onto FC1 and FC2 (or alternatively FC3 and FC4) of a CM5 research grade sensor chip using amine coupling, giving approximately […] RU. FC1 was used a blank throughout the experiments. The experiments were run in HBS-P buffer (SPR). At a flow rate of 20 μl/min, 20 μl of 5 μg/mL of antibody was passed over FC2. IL-12, IL-23 or IL-12p40 (Peprotech) were passed over the surface of FC1 and FC2 at concentrations ranging from 66 nM to 2 nM. Regeneration of the surface was performed using 10 mM Glycine, pH 1.0. The sensorgram data from FC2 was subtracted from FC1 and a buffer only control. The curves were fitted using a 1:1 Langmuir equation to generate the kd, ka and KD values. All curves were fitted with a χ² of less then 2.0 where possible.

Assay [4] has as its target T2, human IL-23. Description: SPR, IgG. As for the experimental part:
as §2, §3
(SPR reads the build-up and loss of mass on a sensor chip optically.)

In assay [5] the target is T2, human IL-23. The experiment in a line: SPR, single 81 nM analyte, scFv via FLAG.
The target in assay [6] is T2, human IL-23. Description: SPR, single 81 nM analyte, scFv via FLAG; LOD about 1 × 10^-5 s^-1.

B1: Antibody 51 (antibody, human IgG1, kappa, V domains shown)
VH: EVQLVQSGAEVKKPGATVKISCKASGYTFSDYYLHWVRQAPGKGLEWMGWIDPENGDTEYAPKFQGRVTITADTSTDTGYLELSSLRSEDTAVYYCAANKELRYFDVWGQGTLVTVSS
VL: DIQMTQSPSSVSASVGDRVTITCRASQSISINLHWYQQKPGKAPKLLIYFASQSISGVPSRFSGSGSGTDFSLTINSLQPEDFATYYCQQSNSFPLTFGGGTKVEIKR
With B1, the binding result with human IL-12 [1] and with human IL-23 [2] was “binds” each time.

B2: Antibody 55 (antibody, human IgG1, kappa, V domains shown)
VH: EVQLVQSGAEVKKPGATVKISCKASGYTFSDYYLHWVRQRPEKGLEWMGWIDPENGDTEYAPKFQGKVTITADTSTDTGYLELSSLRSEDTAVYYCAANKELRYFDVWGQGTLVTVSS
VL: DIQMTQSPSSVSASVGDRVTITCRASQSISINLHWYQQKPGKAPKLLIYFASQSISGVPSRFSGSGSGTDFSLTINSLQPEDFATYYCQQSNSFPLTFGGGTKVEIKR
With B2, the binding result with human IL-12 [1] and with human IL-23 [2] was “binds” each time.

B3: Antibody 59 (antibody, human IgG1, kappa, V domains shown)
VH: EVQLVQSGAEVKKPGATVKISCKASGYTFSDYYLHWVRQAPGKGLEWMGWIDPENGDTEYAPKFQGKVTITADTSTDTGYLELSSLRSEDTAVYYCAANKELRYFDVWGQGTLVTVSS
VL: DIQMTQSPSSVSASVGDRVTITCRASQSISINLHWYQQKPGKAPKLLIKFASQSISGVPSRFSGSGSGTDFSLTINSLQPEDFATYYCQQSNSFPLTFGGGTKVEIKR
Turning to B3, the binding result with human IL-12 [1] and with human IL-23 [2] was “binds” throughout.

B4: Antibody 58 (antibody, human IgG1, kappa, V domains shown)
VH: EVQLVQSGAEVKKPGATVKISCKASGYTFSDYYLHWVRQAPEKGLEWMGWIDPENGDTEYAPKFQGRVTITADTSTDTGYLELSSLRSEDTAVYYCAANKELRYFDVWGQGTLVTVSS
VL: DIQMTQSPSSVSASVGDRVTITCRASQSISINLHWYQQKPGKAPKLLIKFASQSISGVPSRFSGSGSGTDFSLTINSLQPEDFATYYCQQSNSFPLTFGGGTKVEIKR
As for B4, the binding result with human IL-12 [1] and in the assay with human IL-23 [2] was “binds” each time.

B5: Antibody 52 (antibody, human IgG1, kappa, V domains shown)
VH: EVQLVQSGAEVKKPGATVKISCKASGYTFSDYYLHWVRQRPGKGLEWMGWIDPENGDTEYAPKFQGRVTITADTSTDTGYLELSSLRSEDTAVYYCAANKELRYFDVWGQGTLVTVSS
VL: DIQMTQSPSSVSASVGDRVTITCRASQSISINLHWYQQKPGKAPKLLIYFASQSISGVPSRFSGSGSGTDFSLTINSLQPEDFATYYCQQSNSFPLTFGGGTKVEIKR
Regarding B5, the binding result with human IL-12 [1] and in the assay with human IL-23 [2] was “binds” in each case.

B6: Antibody 56 (antibody, human IgG1, kappa, V domains shown)
VH: EVQLVQSGAEVKKPGATVKISCKASGYTFSDYYLHWVRQAPGKGLEWMGWIDPENGDTEYAPKFQGRVTITADTSTDTGYLELSSLRSEDTAVYYCAANKELRYFDVWGQGTLVTVSS
VL: DIQMTQSPSSVSASVGDRVTITCRASQSISINLHWYQQKPGKAPKLLIKFASQSISGVPSRFSGSGSGTDFSLTINSLQPEDFATYYCQQSNSFPLTFGGGTKVEIKR
For B6, the binding result with human IL-12 [1] and in the assay with human IL-23 [2] was “binds” each time.

B7: Antibody 57 (antibody, human IgG1, kappa, V domains shown)
VH: EVQLVQSGAEVKKPGATVKISCKASGYTFSDYYLHWVRQRPGKGLEWMGWIDPENGDTEYAPKFQGRVTITADTSTDTGYLELSSLRSEDTAVYYCAANKELRYFDVWGQGTLVTVSS
VL: DIQMTQSPSSVSASVGDRVTITCRASQSISINLHWYQQKPGKAPKLLIKFASQSISGVPSRFSGSGSGTDFSLTINSLQPEDFATYYCQQSNSFPLTFGGGTKVEIKR
Turning to B7, the binding result with human IL-12 [1] and with human IL-23 [2] was “binds” in each case.

B8: Antibody 54 (antibody, human IgG1, kappa, V domains shown)
VH: EVQLVQSGAEVKKPGATVKISCKASGYTFSDYYLHWVRQAPGKGLEWMGWIDPENGDTEYAPKFQGKVTITADTSTDTGYLELSSLRSEDTAVYYCAANKELRYFDVWGQGTLVTVSS
VL: DIQMTQSPSSVSASVGDRVTITCRASQSISINLHWYQQKPGKAPKLLIYFASQSISGVPSRFSGSGSGTDFSLTINSLQPEDFATYYCQQSNSFPLTFGGGTKVEIKR
On to B8, for which the binding result with human IL-12 [1] and with human IL-23 [2] was “binds” throughout.

B9: Antibody 184 (antibody, human IgG1, kappa, V domains shown)
VH: QVQLVQSGAEVKKPGASVKVSCKASGYTFTDYYLHWVRQAPGQGLEWMGWIDPENGDTEHAPKFQGRVTMTTDTSTSTAYMELRSLRSDDTAVYYCNANKELRYFDVWGQGTMVTVSS
VL: EIVMTQSPATLSVSPGERATLSCRASQSISINLHWYQQKPGQAPRLLIYFASQSISGIPARFSGSGSGTEFTLTISSLQSEDFAVYYCQQSNSFPLTFGGGTKVEIKR
notes: also called CP-A6 as IgG
Consider B9, for which, in the assay with human IL-12 [3], binding was characterised by a dissociation constant (Kd) of 0.127 nM, the koff came to 0.00054 s⁻¹ and the on-rate (kon) was 4.2e+06 M⁻¹ s⁻¹. Also, in the assay with human IL-23 [4], the dissociation constant Kd turned out to be 0.104 nM, the koff is 4.2e-05 s⁻¹ and the kon was found to be 410000 M⁻¹ s⁻¹.

B10: scFv combo. # 10 (scFv)
scFv: QVQLVQSGAEVKKPGASVKVSCKASGYAFTDYYLHWVRQAPGQGLEWMGWIDPENGDTEHAPKFQGRVTMTTDTSTSTAYMELRSLRSDDTAVYYCNANKELRYFDVWGQGTMVTVSSGGGGSGGGGSGGGGSEIVMTQSPATLSVSPGERATLSCRASQSISINLHWYQQKPGQAPRLLIYFASQSISGIPARFSGSGSGTEFTLTISSLQSEDFAVYYCQQSNSFPLTFGGGTKVEIKR
notes: scFv-80 with VH T28A, Y59H; not shown: proprietary C-terminal FLAG tag
In the assay with human IL-23 [5], B10 displayed a Kd of at most 0.013 nM and an on-rate (kon) of 220000 M⁻¹ s⁻¹. The same molecule showed an off-rate (koff) in the assay with human IL-23 [6] of under 1e-05 s⁻¹.

B11: scFv combo. # 12 (scFv)
scFv: QVQLVQSGAEVKKPGASVKVSCKASGYAFTDYYLHWVRQAPGQGLEWMGWIDPENGDTESAPKFQGRVSMTTDTSTSTAYMELRSLRSDDTAVYYCNANKELRYFDVWGQGTMVTVSSGGGGSGGGGSGGGGSEIVMTQSPATLSVSPGERATLSCRASQSISINLHWYQQKPGQAPRLLIYFASQSISGIPARFSGSGSGTEFTLTISSLQSEDFAVYYCQQSNSFPLTFGGGTKVEIKR
notes: scFv-80 with VH T28A, Y59S, T68S; not shown: proprietary C-terminal FLAG tag
With B11, in the assay with human IL-23 [5], the Kd is at most 0.016 nM and the kon worked out at 220000 M⁻¹ s⁻¹. For the same molecule, in the assay with human IL-23 [6], the koff is under 1e-05 s⁻¹.

B12: scFv combo. # 11 (scFv)
scFv: QVQLVQSGAEVKKPGASVKVSCKASGYTFTDYYLHWVRQAPGQGLEWMGWIDPENGDTESAPKFQGRVTMTTDTSTSTAYMELRSLRSDDTAVYYCNANKELRYFDVWGQGTMVTVSSGGGGSGGGGSGGGGSEIVMTQSPATLSVSPGERATLSCRAPQSISINLHWYQQKPGQAPRLLIYFASQSISGIPARFSGSGSGTEFTLTISSLQSEDFAVYYCQQSNSFPLTFGGGTKVEIKR
notes: scFv-80 with VH Y59S; VL S26P; not shown: proprietary C-terminal FLAG tag
Take B12: in the assay with human IL-23 [5], the Kd is at most 0.027 nM and the association rate constant (kon) was determined as 220000 M⁻¹ s⁻¹. Also, the koff with human IL-23 [6] is under 1e-05 s⁻¹.
